{"source": "patent US20170037149A1", "about": "(Amgen, published 2017)", "binders": {"B1": {"name": "FL-26 scFv (scFv)", "scFv": "QVTLKESGPVLVKPTETLTLTCTVSGFSFRNARMGVSWIRQPPGKALEWLAHIFSNDEKSYSTSLKSRLTISKDTSKSQVVLTLTNMDPVDTATYFCARMPEYSSGWSGAFDIWGQGTMVTVSSGGGGSGGGGSGGGGSDIQMTQSPSSLSASVGDRVTITCRASQGIRNDLVWYQQKPGKAPKRLIYGTSTLQSGVPSRFSGSGSGTEFTLTISSLQPEDFATYYCLQHNSYPLTFGGGTKVEIK", "notes": "periplasmic prep"}, "B2": {"name": "FL-36 scFv (scFv)", "scFv": "B1 scFv with V10T, V24F, F29L, N31Y, G167D, V173A, G189A, T190A, T192S, V243L", "notes": "periplasmic prep"}, "B3": {"name": "FL-22 scFv (scFv)", "scFv": "B1 scFv with R169S, D171Y, V173A, G189A, T190A, S232T, L235W, G239Q", "notes": "periplasmic prep"}, "B4": {"name": "FL-25 scFv (scFv)", "scFv": "B1 scFv with V10A, G167D, N170D, V173G, G189A, T190A, S202T, S204G, Y233F, L235F", "notes": "periplasmic prep"}, "B5": {"name": "FL-37 scFv (scFv)", "scFv": "QVTLKESGPVLVKPTETLTLTCTVSGFSLRNIKMGVSWIRQPPGKALEWLAHIFSNDEKSYSTSLKSRLTISKDTSKSQVVLTLTNMDPVDTATYFCARMPEYSSGWSGAFDIWGQGTMVTVSSGGGGSGGGGSGGGGSDIQMTQSPSSLSASVGDRVTITCRASQDISNYLAWYQQKPGKAPKRLIYAASSLQSGVPSRFSGSGSGTEFTLTISSLQPEDFATYYCLQHNSFPLTFGGGTKLEIK", "notes": "periplasmic prep"}, "B6": {"name": "FL-24 scFv (scFv)", "scFv": "QVTLKESGPALVKPTETLTLTCTVSGFSLRNVRMGVSWIRQPPGKALEWLAHIFSNDEKSYSTSLKSRLTISKDTSKSQVVLILTNMDPVDTATYFCARMPEYSSGWSGAFDIWGQGTMVTVSSGGGGSGGGGSGGGGSDIQMTQSPSSLSASVGDRVTITCRASQDIRDDLVWYQQKPGKAPKRLIYAASTLQSGVPSRFSGSGSGTEFTLTISSLQPEDFATYYCLQHHSYPWTFGQGTKVEIK", "notes": "periplasmic prep"}, "B7": {"name": "FL-28 scFv (scFv)", "scFv": "B1 scFv with R169G, N170D, V173G, K178I, G189A, T192V", "notes": "periplasmic prep"}, "B8": {"name": "FL-44 scFv (scFv)", "scFv": "B1 scFv with A46C, A164T, G189A, T190A, Y226F, N231Y, G239C", "notes": "periplasmic prep"}, "B9": {"name": "FL-10 scFv (scFv)", "scFv": "B1 scFv with G167D, N170D, V173G, K181N, T190A, E244D", "notes": "periplasmic prep"}, "B10": {"name": "FL-43 scFv (scFv)", "scFv": "B1 scFv with A46C, G239C", "notes": "periplasmic prep"}, "B11": {"name": "FL-52 scFv (scFv)", "scFv": "B5 scFv with V10T, V24F, N31Y, I32A, K33R, A46C, S169R, Y171D, F233Y, G239C", "notes": "periplasmic prep"}, "B12": {"name": "FL-23 scFv (scFv)", "scFv": "B6 scFv with L29F, V32A, I83T, R169G, D170Y, V173G, T213I, H231N, Y233F", "notes": "periplasmic prep"}, "B13": {"name": "FL-27 scFv (scFv)", "scFv": "B1 scFv with A164T, G189A, T190A, Y226F, N231Y", "notes": "periplasmic prep"}, "B14": {"name": "FL-38 scFv (scFv)", "scFv": "B1 scFv with M119L, V173G, G189A, T190A, T192S, V243L", "notes": "periplasmic prep"}, "B15": {"name": "FL-59 scFv (scFv)", "scFv": "B6 scFv with A10M, I83T, V173G, K181N, A189G, H231N, W235L, Q239G, K242R, V243L", "notes": "periplasmic prep"}, "B16": {"name": "FL-14 scFv (scFv)", "scFv": "QVTLKESGPALVKPTETLTLTCTLSGFSLNNARMAVSWIRQPPGKTLEWLAHIFSNDEKSYSTSLKSRLTISKDTSKGQVVLTMTNMDPVDTATYYCARIVGYGSGWYGYFDYWGQGTLVTVSSGGGGSGGGGSGGGGSDIQMTQSPSSLSASVGDRVTITCRASQDIRNDLGWYQQKPGKAPKRLIYAASTLQSGVPSRFSGSGSGTEFTLTISSLQPEDFATYYCLQHNSYPLTFGGGTKVEIK", "notes": "periplasmic prep"}, "B17": {"name": "FL-13 scFv (scFv)", "scFv": "B16 scFv with A10T, A35G, T46A, S67N, T75S, G78T, M87V, Y110F, D167G", "notes": "periplasmic prep"}, "B18": {"name": "FL-20 scFv (scFv)", "scFv": "B16 scFv with G78S, V90E, S105T, Y110F, T118I, D167G, G173A, T192S", "notes": "periplasmic prep"}, "B19": {"name": "FL-4 scFv (scFv)", "scFv": "B16 scFv with R33K, A35G, T46A, N170D, K181N, A189G, E244D", "notes": "periplasmic prep"}, "B20": {"name": "FL-32 scFv (scFv)", "scFv": "QVTLKESGPTLVKPTETLTLTCTVSGFSFRNARMGVSWIRQPPGKALEWLAHIFSNDEKSYSTSLKSRLTISKDTSKGQVVLTMTNMDPVDTATYYCARIVGYGSGWYGYFDYWGQGTLVTVSSGGGGSGGGGSGGGGSDIQMTQSPSSLSASVGDRVTITCRASQGIRNDLVWYQQKPGKAPKRLIYAASTLQSGVPSRFSGSGSGTEFILTISSLQPEDFATYFCLQHYSYPLTFGGGTKLEIK", "notes": "periplasmic prep"}, "B21": {"name": "FL-6 scFv (scFv)", "scFv": "QVTLKESGPTLVKPTETLTLTCTLSGFSLNNARMAVSWIRQPPGKTLEWLAHIFSNDEKSYSPSLKSRLTISKDTSKSQVVLTMTNMDPEDTATYYCARIVGYGTGWYGFFDYWGQGILVTVSSGGGGSGGGGSGGGGSDIQMTQSPSSLSASVGDRVTITCRASQGIRNDLGWFQQKPGKAPKRLIYAASVLQSGVPSRFSGSGSGTEFTLTISSLQPEDFATYYCLQHNSYPLTFGGGTKVDIK", "notes": "periplasmic prep"}, "B22": {"name": "FL-15 scFv (scFv)", "scFv": "B16 scFv with R169G, T192S", "notes": "periplasmic prep"}, "B23": {"name": "FL-12 scFv (scFv)", "scFv": "QVTLKESGPALVKPTETLTLTCTVSGFSLSNARMGVSWIRQPPGKALEWLANIFSNDEKSYSTSLKSRLTISKGTSKSQVVLTMTNMDPEDTATYYCARIVGYGSGWYGYFDYWGQGTLVTVSSGGGGSGGGGSGGGGSDIQMTQSPSSLSASVGDRVTITCRASQGIRNDLGWYQQKPGKAPQRLIYAASSLQSGVPSRFSGSGSGTEFTLTISSLQPEDFATYYCLQHNSYPLTFGGGTKVEIK", "notes": "periplasmic prep"}, "B24": {"name": "FL-33 scFv (scFv)", "scFv": "QVTLKESGPVLVKPTETLTLTCTVSGFSLRNARMGVSWIRQPPGKTLEWLAHIFSNDEKSYSTSLKSRLTISKDTSKGQVVLTMTNMDPVDTATYYCARIVGYGSGWYGYFDYWGQGTLVTVSSGGGGSGGGGSGGGGSDIQMTQSPSSLSASVGDRVTITCRASQGIGDDLGWYQQIPGKAPKRLIYATSVLQSGVPSRFSGSGSGTEFTLTISSLQPEDFATYYCLQHNSYPLTFGGGTKLEIK", "notes": "periplasmic prep"}, "B25": {"name": "FL-11 scFv (scFv)", "scFv": "B16 scFv with A10V, R33K, A35G, T46A, H52Q, D57G, A98S, D167G, A189G", "notes": "periplasmic prep"}, "B26": {"name": "FL-29 scFv (scFv)", "scFv": "B23 scFv with E16Q, V24F, N52H, S62R, G74D, E90V, G109A, Q184K", "notes": "periplasmic prep"}, "B27": {"name": "FL-16 scFv (scFv)", "scFv": "B16 scFv with A10V, L24V, N30R, G78S, L150V, N170Y, G173A, T192S, S232F", "notes": "periplasmic prep"}}, "note": "Numbering of substitutions follows the chain as printed."}
{"molecular_target": "T1, human FLT3 (human, UniProt P36888 27-993)", "T1 construct": "On transfected CHO cells, or on the FLT3 positive human AML cell lines EOL-1 / MV4-11 where the row says so; also called hu FLT3; full length human FLT3", "experiment": "FACS, scFv on CHO-human FLT3 pre-incubated with FLT3 ligand (competitor)", "units": {"median [+ligand]/median [w/o ligand]*100": "%"}, "experimental": "The detection was performed using mouse anti-FLAG+PE-conjugated goat anti-mouse and the Fluorescence median detected by FACS (median (+ligand)/median (w/o ligand)*100%)\nAfterwards cells were not washed but directly stained with FLT3 binder (scFv's). […] As negative control, cells were incubated with an unspecific scFv instead of FLT3 scFv.\nFor the evaluation of the data, the fluorescence median was detected by FACS."}
{"binder": "B1", "median [+ligand]/median [w/o ligand]*100": "≥ 75"}
{"binder": "B2", "median [+ligand]/median [w/o ligand]*100": "≥ 75"}
{"binder": "B3", "median [+ligand]/median [w/o ligand]*100": "≥ 75"}
{"binder": "B4", "median [+ligand]/median [w/o ligand]*100": "≥ 75"}
{"binder": "B5", "median [+ligand]/median [w/o ligand]*100": "≥ 75"}
{"binder": "B6", "median [+ligand]/median [w/o ligand]*100": "≥ 75"}
{"binder": "B7", "median [+ligand]/median [w/o ligand]*100": "≥ 75"}
{"binder": "B8", "median [+ligand]/median [w/o ligand]*100": "≥ 75"}
{"binder": "B9", "median [+ligand]/median [w/o ligand]*100": "≥ 75"}
{"binder": "B10", "median [+ligand]/median [w/o ligand]*100": "≥ 75"}
{"binder": "B11", "median [+ligand]/median [w/o ligand]*100": "≥ 75"}
{"binder": "B12", "median [+ligand]/median [w/o ligand]*100": "≥ 75"}
{"binder": "B13", "median [+ligand]/median [w/o ligand]*100": "≥ 75"}
{"binder": "B14", "median [+ligand]/median [w/o ligand]*100": "≥ 75"}
{"binder": "B15", "median [+ligand]/median [w/o ligand]*100": "≥ 75"}
{"binder": "B16", "median [+ligand]/median [w/o ligand]*100": "≥ 75"}
{"binder": "B17", "median [+ligand]/median [w/o ligand]*100": "≥ 75"}
{"binder": "B18", "median [+ligand]/median [w/o ligand]*100": "≥ 75"}
{"binder": "B19", "median [+ligand]/median [w/o ligand]*100": "≥ 75"}
{"binder": "B20", "median [+ligand]/median [w/o ligand]*100": "≥ 75"}
{"binder": "B21", "median [+ligand]/median [w/o ligand]*100": "≥ 75"}
{"binder": "B22", "median [+ligand]/median [w/o ligand]*100": "≥ 75"}
{"binder": "B23", "median [+ligand]/median [w/o ligand]*100": "≥ 75"}
{"binder": "B24", "median [+ligand]/median [w/o ligand]*100": "≥ 75"}
{"binder": "B25", "median [+ligand]/median [w/o ligand]*100": "≥ 75"}
{"binder": "B26", "median [+ligand]/median [w/o ligand]*100": "≥ 75"}
{"binder": "B27", "median [+ligand]/median [w/o ligand]*100": "≥ 75"}
